B1: E3 ubiquitin ligase seven in absentia homolog 1 (Siah1), human, endogenous in human retinal pericytes (hRP) (enzyme)
chain: MSRQTATALPTGTSKCPPSQRVPALTGTTASNNDLASLFECPVCFDYVLPPILQCQSGHLVCSNCRPKLTCCPTCRGPLGSIRNLAMEKVANSVLFPCKYASSGCEITLPHTEKADHEELCEFRPYSCPCPGASCKWQGSLDAVMPHLMHQHKSITTLQGEDIVFLATDINLPGAVDWVMMQSCFGFHFMLVLEKQEKYDGHQQFFAIVQLIGTRKQAENFAYRLELNGHRRRLTWEATPRSIHEGIATAIMNSDCLVFDTSIAQLFAENGNLGINVTISMC
notes: Endogenous protein in lysates of human retinal pericytes, immunoprecipitated with an anti-Siah1 antibody
B2: glyceraldehyde-3-phosphate dehydrogenase (GAPDH), human, endogenous in human retinal pericytes (hRP) (enzyme)
chain: not shown
notes: Endogenous protein in lysates of human retinal pericytes; The proposed model says GAPDH is S-nitrosylated when it associates with Siah1

Key:
[1] = target: B2; test: co-immunoprecipitation from hRP lysates: IP anti-Siah1, western blot anti-GAPDH
Method: (§1) Equal amounts of protein (1000 μg) from each sample were mixed with 10 μg of anti-Siah1 antibody overnight at 4° C. Pierce Protein A/G Magnetic Beads were pre-cleared and added to the antigen sample/antibody mixture at room temperature for 1 hr. Beads were collected with a magnetic stand and eluted using 50 μl 4× SDS-PAGE reducing sample buffer at 100° C. for 10 mins. The immuno-complexes were then subjected to Western blot analysis. Siah1-depleted samples served as controls for total pull down of Siah1 from each lysate.

[2] = target: B1; test: as above
Method: as §1

Row | Binder | binding result [1] | fold increase in GAPDH/Siah1 association (high glucose against osmotic control) [2] [fold]
1 | B1 | binds | 
2 | B2 |  | 1.5

— patent US20180296639A1 (Hoffmann-La Roche, published 2018)
